Experiment [1] has as its target FLAG-tagged yeast PEX13 with two cysteines in the YG domain (positions 104 and 131) (S. cerevisiae) (UniProt P80667). In words: cross-linking; disulfide cross-linking of introduced cysteines in intact yeast membranes: 0, 50 or 200 μM Aldrithiol-4, 30 min at 30 °C, 20 mM HEPES-NaOH pH 7.2, 50 mM NaCl, 250 mM sucrose, 1 mM EDTA; quenched with NEM, solubilised in 0.5 % DDM, anti-FLAG IP, non-reducing or reducing SDS-PAGE, blot; also with DDM added before the oxidant, and in strains lacking PEX2, PEX5, PEX14 or PEX17.

The target in experiment [2] is FLAG-tagged yeast PEX13 with a single cysteine at residue 131 in the YG domain (S. cerevisiae) (UniProt P80667). The experiment is described as above.
The target of experiment [3] is FLAG-tagged yeast PEX13 with a single cysteine at residue 104 in the YG domain (S. cerevisiae) (UniProt P80667). The description is as above.
Experiment [4] deals with FLAG-tagged yeast PEX13 with two cysteines (104 and 131) and all tyrosines of the YG domain converted into serines (UniProt P80667). In words: disulfide crosslinking in intact membranes, FLAG IP and immunoblot quantification. The following applies: nonreducing SDS-PAGE, read off a plot. For orientation: In western blotting, separated proteins are transferred to a membrane and probed.
Chain of FLAG-tagged yeast PEX13 with two cysteines (104 and 131) and all tyrosines of the YG domain converted into serines (P80667 other isoform, or with tags, fused parts or gaps): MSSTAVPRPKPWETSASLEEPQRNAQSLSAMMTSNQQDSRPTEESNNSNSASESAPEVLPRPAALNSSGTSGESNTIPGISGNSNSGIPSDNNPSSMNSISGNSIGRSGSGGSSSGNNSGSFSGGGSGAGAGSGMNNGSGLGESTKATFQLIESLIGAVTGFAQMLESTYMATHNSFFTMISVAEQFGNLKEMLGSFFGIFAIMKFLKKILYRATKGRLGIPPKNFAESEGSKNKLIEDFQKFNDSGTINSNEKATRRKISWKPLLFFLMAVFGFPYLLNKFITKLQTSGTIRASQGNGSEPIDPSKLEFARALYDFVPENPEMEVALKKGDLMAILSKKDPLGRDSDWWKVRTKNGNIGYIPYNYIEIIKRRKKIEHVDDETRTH

Chain of FLAG-tagged yeast PEX13 with two cysteines in the YG domain (positions 104 and 131) (P80667 whole entry, the tested form may be a part): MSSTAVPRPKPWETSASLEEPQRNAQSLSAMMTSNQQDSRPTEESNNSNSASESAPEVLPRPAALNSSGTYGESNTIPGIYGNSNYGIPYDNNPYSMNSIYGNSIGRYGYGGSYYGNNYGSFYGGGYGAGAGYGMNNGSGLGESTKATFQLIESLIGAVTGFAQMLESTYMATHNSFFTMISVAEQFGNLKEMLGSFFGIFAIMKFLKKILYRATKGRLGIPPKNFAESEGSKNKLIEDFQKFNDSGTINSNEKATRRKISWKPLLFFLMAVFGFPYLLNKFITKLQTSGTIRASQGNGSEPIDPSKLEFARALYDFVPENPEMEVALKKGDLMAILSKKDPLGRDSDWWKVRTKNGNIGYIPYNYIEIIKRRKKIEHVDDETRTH
Chain of FLAG-tagged yeast PEX13 with a single cysteine at residue 131 in the YG domain (P80667 whole entry, the tested form may be a part): as above
Chain of FLAG-tagged yeast PEX13 with a single cysteine at residue 104 in the YG domain (P80667 whole entry, the tested form may be a part): as above

As a reminder, the stoichiometry N is the number of molecules, sites or subunits per partner or assembly. “FLAG-tagged yeast PEX13 with two cysteines in the YG domain (positions 104 and 131) (from UniProt P80667 1-386) (natural protein)” gave a stoichiometry N in experiment [1] greater than 8.
Regarding “FLAG-tagged yeast PEX13 with a single cysteine at residue 131 in the YG domain (from UniProt P80667 1-386) (natural protein)”, the percent disulfide-linked dimers in experiment [2] is greater than 70%.
Regarding “FLAG-tagged yeast PEX13 with a single cysteine at residue 104 in the YG domain (from UniProt P80667 1-386) (natural protein)”, the percent disulfide-linked dimers in experiment [3] is greater than 70%.
Turning to “FLAG-tagged yeast PEX13 with two cysteines in the YG domain (positions 104 and 131) (from UniProt P80667) Y71S; Y81S; Y86S; Y90S; Y95S; Y101S; Y108S; Y110S; Y114S; Y115S; Y119S; Y123S; Y127S; Y133S”, the other: fraction crosslinked in experiment [4] (lane 4 (parent lane 1), lowest point of oxidant series, 0 µM Aldrithiol-4, parent: est. 0.10) worked out at 0.06; in experiment [4] (lane 5 (parent lane 2), middle point of oxidant series, 50 µM Aldrithiol-4, parent: est. 0.67), 0.1; in experiment [4] (lane 6 (parent lane 3), highest point of oxidant series, 200 µM Aldrithiol-4, parent: est. 0.70), 0.18.

(Values after article PMC9795577.)
